For the assay, the target named is PDZ1 NHERF1 Y38W. As to the kind of experiment: FRET or BRET; equilibrium fluorescence titration, FRET between Trp38 (donor) and dansyl (acceptor), excitation 280 nm; 50 mM Na phosphate, pH 7.2, 300 mM NaCl, 5 mM DTT, 20% DMSO, 25 °C; without RS5517. For orientation: BRET reads energy transfer from a luciferase to a nearby fluorophore.

Ends that are not written are not given here. * marks the point of attachment. Dansyl = CN(C)c1cccc2c(S(=O)(=O)*)cccc12

One may read the Kd as a measure of binding affinity in units of concentration. Lower therefore signals tighter binding. The molecule Dansyl-NDSLL [Dansyl-NDSLL, dansylated peptide of the C-terminal sequence of the β2-adrenergic receptor] displayed a Kd of 10 µM.

These data come from article PMC6002344.
